# Data: article PMC10046250
# Where no end group is shown, it is not given here. [ ]: non-standard residue; d: D form. sY = N[C@@H](Cc1ccc(OS(=O)(=O)O)cc1)C(=O)O
# T1: mouse cholecystokinin 1 receptor (mouse (endogenous in isolated mouse pancreatic acini)) (UniProt O08786)
# T1 sequence: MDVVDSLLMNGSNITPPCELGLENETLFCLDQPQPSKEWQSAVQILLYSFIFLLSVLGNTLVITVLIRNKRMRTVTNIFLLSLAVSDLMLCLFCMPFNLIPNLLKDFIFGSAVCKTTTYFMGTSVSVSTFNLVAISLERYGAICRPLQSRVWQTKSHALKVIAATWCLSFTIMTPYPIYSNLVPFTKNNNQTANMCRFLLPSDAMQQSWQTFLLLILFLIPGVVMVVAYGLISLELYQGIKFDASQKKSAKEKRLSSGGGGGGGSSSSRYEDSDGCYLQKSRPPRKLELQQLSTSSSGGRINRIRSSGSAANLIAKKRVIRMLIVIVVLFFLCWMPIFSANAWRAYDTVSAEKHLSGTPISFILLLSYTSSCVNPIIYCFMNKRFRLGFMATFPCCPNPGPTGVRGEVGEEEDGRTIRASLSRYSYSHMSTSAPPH
# Target: T1, mouse cholecystokinin 1 receptor (mouse (endogenous in isolated mouse pancreatic acini))
binder,measurement,value
D[sY]MGWMDF-NH2 (ends and bridges not checked) [Sulfated cholecystokinin octapeptide],CCK concentration needed to induce regular cytosolic calcium oscillations (Fura-2 imaging) in perifused isolated mouse pancreatic acini (data in Figure S1),10 pM
